# Data: article PMC10785194
# B1: androgen receptor (AR): OSMI-1 (protein)
# parent chain: MEVQLGLGRVYPRPPSKTYRGAFQNLFQSVREVIQNPGPRHPEAASAAPPGASLLLLQQQQQQQQQQQQQQQQQQQQQQQETSPRQQQQQQGEDGSPQAHRRGPTGYLVLDEEQQPSQPQSALECHPERGCVPEPGAAVAASKGLPQQLPAPPDEDDSAAPSTLSLLGPTFPGLSSCSADLKDILSEASTMQLLQQQQQEAVSEGSSSGRAREASGAPTSSKDNYLGGTSTISDNAKELCKAVSVSMGLGVEALEHLSPGEQLRGDCMYAPLLGVPPAVRPTPCAPLAECKGSLLDDSAGKSTEDTAEYSPFKGGYTKGLEGESLGCSGSAAAGSSGTLELPSTLSLYKSGALDEAAAYQSRDYYNFPLALAGPPPPPPPPHPHARIKLENPLDYGSAWAAAAAQCRYGDLASLHGAGAAGPGSGSPSAAASSSWHTLFTAEEGQLYGPCGGGGGGGGGGGGGGGGGGGGGGGEAGAVAPYGYTRPPQGLAGQESDFTAPDVWYPGGMVSRVPYPSPTCVKSEMGPWMDSYSGPYGDMRLETARDHVLPIDYYFPPQKTCLICGDEASGCHYGALTCGSCKVFFKRAAEGKQKYLCASRNDCTIDKFRRKNCPSCRLRKCYEAGMTLGARKLKKLGNLKLQEEGEASSTTSPTEETTQKLTVSHIEGYECQPIFLNVLEAIEPGVVCAGHDNNQPDSFAALLSSLNELGERQLVHVVKWAKALPGFRNLHVDDQMAVIQYSWMGLMVFAMGWRSFTNVNSRMLYFAPDLVFNEYRMHKSRMYSQCVRMRHLSQEFGWLQITPQEFLCMKALLLFSIIPVDGLKNQKFFDELRMNYIKELDRIIACKRKNPTSCSRRFYQLTKLLDSVQPIARELHQFTFDLLIKSHMVSVDFPEMMAEIISVQVPKILSGKVKPIYFHTQ
# B2: androgen receptor (AR): Thiamet G (protein)
# parent chain: B1 parent chain
# Tests used:
# Conditions in all cases: control: untreated
# [1] = immunofluorescence, nuclear AR, C4-2B
# [2] = CHX chase, AR protein stability by immunoblot
# immunoblot, C4-2B = assay: immunoblot, C4-2B
Protein,localisation_or_trafficking ([1]; glycan lost),degradation_or_half_life ([2]; glycan lost),"other: AR S81 phosphorylation (immunoblot, C4-2B; glycan lost)",localisation_or_trafficking ([1]; glycan gained),degradation_or_half_life ([2]; glycan gained),"other: AR S81 phosphorylation (immunoblot, C4-2B; glycan gained)"
B1,increases,increases,increases,–,–,–
B2,–,–,–,decreases,decreases,decreases
